# Reference: the RNAGym collection of RNA variant scans (doi:10.1021/acssynbio.7b00057)
# B1: Pistol ribozyme (parent)
# chain: GGGUCGUUGUUCCAUAAUCGCGUGGAUAUGGCACGCAAGUUUCUACCGGGCACCGUAAAUGUCCGACUGGAGCCGUUCGGGCGGCUAUAAACAGACCUCAGGCCCGAAGCGUGGCGGCACCUGCCGCCGGUGGUAAAAAAGAUCGGAAGAGCACACGUCU
# Variants of: B1
# Test: aptazyme ON/OFF ratio, guanine; higher = stronger switching; co-transcriptional cleavage with and without guanine
row,Variant,aptazyme ON/OFF ratio
1,U8C G9A U11C C12G C13A,1.24
2,U8C G9A U11C C12G C13U,1.18
3,U8C G9C U10G U11A C13U,1.06
4,U8C G9C U10G U11A C13A,1.13
5,U8C G9C U10G U11A C13G,1.19
6,U8C G9C U10G U11C C13G,1.22
7,U8C G9C U10G U11C C13A,1.3
8,U8C G9C U10G U11C C13U,1.2
9,U8C G9C U10A C12U C13G,1.12
10,U8C G9C U10A C12U C13A,1.08
11,U8C G9C U10A C12U C13U,1.14
12,U8C G9C U10C U11A C12U,1.02
13,U8C G9C U10C U11A C12G,1.01
14,U8C G9C U10C U11A C12A,1.04
15,U8C G9A U10G U11C C12A C13U,1.22
16,U8C G9A U10G U11C C12A C13A,1.15
17,U8C G9A U10G U11C C12A C13G,1.1
18,U8C G9A U10G U11C C12U C13A,1.2
19,U8C G9A U10G U11C C12U C13G,1.15
20,U8C G9A U10G U11C C12U C13U,1.28
21,U8C G9C U10A U11C,1.05

row,Variant,aptazyme ON/OFF ratio
1,U8C G9C U10A U11G,1.16
2,U8C G9C U10A U11A,1.24
3,U8C G9C U10G C12U C13A,1.12
4,U8C G9C U10G C12U C13G,1.06
5,U8C G9C U10G C12U C13U,1.28
6,U8C G9A U11C C13G,1.04
7,U8C G9A U11C C13U,1.04
8,U8C G9A U11C C13A,1.06
9,U8C G9A U11A C12G,1.18
10,U8C G9A U11A C12A,1.25
11,U8C G9A U11A C12U,1.1
12,U8C G9A U10G U11G C12G C13A,1.1
13,U8C G9A U10G U11G C12G C13G,1.09
14,U8C G9A U10G U11G C12G C13U,1.11
15,U8C G9C U10C U11G C13U,1.17
16,U8C G9C U10C U11G C13A,1.14
17,U8C G9C U10C U11G C13G,1.31
18,U8C G9A U11A C12A C13G,1.13
19,U8C G9A U11A C12A C13U,1.34
20,U8C G9A U11A C12A C13A,1.15
21,U8C G9A U10G U11A C13U,1.02

row,Variant,aptazyme ON/OFF ratio
1,U8C G9A U10G U11A C13A,1.03
2,U8C G9A U10G U11A C13G,1.04
3,U8C G9A U10G U11A C12U,1.04
4,U8C G9A U10G U11A C12G,1.14
5,U8C G9A U10G U11A C12A,1.19
6,U8C G9C U10A U11C C12U C13A,1.19
7,U8C G9C U10A U11C C12U C13U,1.19
8,U8C G9C U10A U11C C12U C13G,1.17
9,U8C G9C U10G U11C C12U C13U,1.19
10,U8C G9C U10G U11C C12U C13G,1.09
11,U8C G9C U10G U11C C12U C13A,1.17
12,U8C G9C U10G U11G C12G C13A,1.13
13,U8C G9C U10G U11G C12G C13G,1.1
14,U8C G9C U10G U11G C12G C13U,1.11
15,U8C G9C U10A U11G C12A C13A,1.16
16,U8C G9C U10A U11G C12A C13G,1.09
17,U8C G9C U10A U11G C12A C13U,1.07
18,U8C G9A U10G U11G C12A,1.12
19,U8C G9A U10G U11G C12G,1.21
20,U8C G9A U10G U11G C12U,1.24
21,U8C G9A U10G U11C C12G C13G,1.28

row,Variant,aptazyme ON/OFF ratio
1,U8C G9A U10G U11C C12G C13A,1.18
2,U8C G9A U10G U11C C12G C13U,1.2
3,U8C G9C,1.12
4,U8C G9A U10G U11C C12A,1.23
5,U8C G9A U10G U11C C12U,1.07
6,U8C G9A U10G U11C C12G,1.23
7,U8C G9C U10G U11G C12U C13U,1.09
8,U8C G9C U10G U11G C12U C13A,1.07
9,U8C G9C U10G U11G C12U C13G,1.13
10,U8C G9A U10C U11G C13G,1.44
11,U8C G9A U10C U11G C13U,1.35
12,U8C G9A U10C U11G C13A,1.2
13,U8C G9C U10C C12A C13A,1
14,U8C G9C U10C C12A C13G,1.08
15,U8C G9C U10C C12A C13U,1.03
16,U8C G9C U10C U11C C12G C13G,1.09
17,U8C G9C U10C U11C C12G C13U,1.06
18,U8C G9C U10C U11C C12G C13A,1.12
19,U8C G9C U10C U11A C12A C13A,1.04
20,U8C G9C U10C U11A C12A C13U,1.02
21,U8C G9C U10C U11A C12A C13G,1.05
